T1: TROP2 antigen (extracellular region of TROP2, expressed in 293F cells) (human, UniProt P09758 27-274)
T1 construct: extracellular domain; The antigen was coated on ELISA plates; For the Octet assay it was biotin-labelled and immobilized on streptavidin sensors; also called TROP2 protein
T1 sequence (looked up): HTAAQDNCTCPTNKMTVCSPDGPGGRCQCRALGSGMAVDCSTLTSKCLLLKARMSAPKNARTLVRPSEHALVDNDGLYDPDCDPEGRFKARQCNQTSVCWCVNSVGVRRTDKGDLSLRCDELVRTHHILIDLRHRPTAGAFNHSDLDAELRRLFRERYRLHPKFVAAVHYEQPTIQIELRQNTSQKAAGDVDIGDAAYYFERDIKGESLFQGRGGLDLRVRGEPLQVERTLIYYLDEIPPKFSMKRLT

T2: TROP2 on BXPC-3 and MCF-7 cells (human, UniProt P09758 27-323)
T2 construct: whole, on cells; also called BxPC-3 cells; MCF-7 cells (positive cells)
T2 sequence (looked up): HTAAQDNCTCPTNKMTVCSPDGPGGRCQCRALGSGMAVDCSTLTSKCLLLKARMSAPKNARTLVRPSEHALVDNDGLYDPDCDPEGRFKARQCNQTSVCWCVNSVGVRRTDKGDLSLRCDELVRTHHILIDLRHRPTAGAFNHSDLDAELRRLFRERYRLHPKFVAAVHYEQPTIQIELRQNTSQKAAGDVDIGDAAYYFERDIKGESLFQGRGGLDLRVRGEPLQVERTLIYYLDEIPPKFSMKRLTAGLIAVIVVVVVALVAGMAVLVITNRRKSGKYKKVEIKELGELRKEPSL

B1: 7F11 humanized antibody (antibody, V domains shown)
VH: QVQLVQSGAEVKKPGASVKVSCKASGYTFTDHVISWVRQATGQGLEWMGQIYPGSDNSYYAQKFQGRVTLTADKSINTAYMELSSLRSEDTAVYYCAREGYGYGKNGVGYAMDYWGQGTLVTVSS
VL: DIVMTQSPDSLAVSLGERATINCKASQSVSNDVVWYQQKPGQPPKLLIYYASNRYTGVPDRFSGSGYGTDFTLTISSLQAEDVAVYYCQQDYSSPWTFGGGTKVEIKR
notes: also called Hu7F11; hu7F11
B2: 4D3 chimeric antibody (antibody, human IgG1, kappa, V domains shown)
VH: QVQLQQSGAELVKPGASVKLSCKASGYTFTSFDINWVRQRPEQGLEWIGWIFPGDGNTKSNEKFKGKATLTTDKSSSTAYMQLSRLTSEDSAVYFCVRGEALYYFDYWGPGTTLTVSS
VL: DIQMTQSPSSLSASLGGKVTITCKPSQDINKYIAWYQHKPGKGPRLLIHSTSTLQPGIPSRFSGSGSGRDYSFTISNLEPEDIATYYCLQYDDLFTFGSGTKLEIKR
notes: The entries begin with a leader (signal) peptide; also called ch4D3
B3: 7F11 chimeric antibody (antibody, human IgG1, kappa, V domains shown)
VH: QVQLQQSGPEVVKPGASVKMSCKASGYTFTDHVISWVKQRTGQGLEWIGQIYPGSDNSYYSEKLKDKATLTADKSSNTAYMQLVSLTSEDSAVYFCAREGYGYGKNGVGYAMDYWGQGTSVTVSS
VL: SIVMTQTPKFLLVSAGDRVTITCKASQSVSNDVVWYQQKPGQSPKLLIYYASNRYTGVPDRFTGSGYGTDFTFTISTAQAEDLAVYFCQQDYSSPWTFGGGTKLEIKR
notes: The entries begin with a leader (signal) peptide; also called ch7F11
B4: 4D3 humanized antibody (antibody, V domains shown)
VH: QVQLVQSGAEVKKPGASVKLSCKASGYTFTSFDINWVRQAPEQRLEWMGWIFPGDGNTKYSQKFQGRATITRDTSASTAYMELSSLRSEDTAVYYCVRGEALYYFDYWGQGTLVTVSS
VL: DIQMTQSPSSLSASVGDRVTITCRASQDINKYLAWYQQKPGKVPKLLIYSTSTLQSGVPSRFSGSGSGTDFTLTISSLQPEDVATYYCLQYDDLFTFGQGTKLEIKR
notes: also called Hu4D3; hu4D3

Columns and labels:
[1] = molecular target: T1, TROP2 antigen (extracellular region of …); assay: competition ELISA on TROP2-coated plate; competitor: 7F11-humanized-biotin
[2] = molecular target: T2, TROP2 on BXPC-3 and MCF-7 cells; assay: flow cytometry on MCF-7 cells, 1 hr at 4 C, FITC-labelled secondary antibody
[3] = molecular target: T1, TROP2 antigen (extracellular region of …); assay: BLI (ForteBio Octet), biotin-labelled antigen on streptavidin sensor, antibody in solution
Description: Pall ForteBio Octet optical analysis technology platform is used to evaluate the absolute affinity of antibody-antigen binding. In this method, the biotin-labeled antigen is immobilized on the surface of the streptavidin biosensor chip, the baseline is balanced for 180 seconds, and then it binds with the antibody diluted in the solution concentration gradient for 30 seconds, which increases the optical thickness of the chip, resulting in The wavelength shifts (Δλ), and then enters the dissociation phase of 30 sec. The interaction between the Trop2 antigen and the corresponding antibody is measured in real time, and the specificity of binding, binding rate, dissociation rate or sample concentration are precisely and accurately measured at each concentration. After summarizing the k-on and k-off values under at least 5 concentration gradients, the KD binding constant is obtained.

[4] = molecular target: T2, TROP2 on BXPC-3 and MCF-7 cells; assay: flow cytometry on BXPC-3 cells, 1 hr at 4 C, FITC-labelled secondary antibody
[5] = molecular target: T1, TROP2 antigen (extracellular region of …); assay: ELISA, TROP2-coated plate, anti-human Fc HRP
[6] = molecular target: T1, TROP2 antigen (extracellular region of …); assay: competition ELISA on TROP2-coated plate; competitor: 0.5 ng/ml 4D3-humanized-biotin
Procedure: The 4D3-humanized antibody was labeled with biotin, and the inflection point value of the binding curve was determined by ELISA to be 0.5 ng/ml. Prepare an ELISA blocking solution containing 0.5 ng/ml 4D3 biotin-labeled antibody, and configure 50 ug/ml of competing antibodies 4D3-chimeric and 4D3-humanized on the basis of this solution. Add the solution containing biotin-labeled antibody and competing antibody to A1˜A12, 150 ul per well, then aspirate 50 ul and add to B2˜B12, mix well with the pre-added biotin antibody solution with a volume of 100 ul, and then dilute 3 times in sequence To H1˜H12, incubate at 37° C. for 1 hr, then wash and incubate the […], incubate at 37° C. for 1 hr, then wash 3 times, perform color development for 25 min and read the value.
FIG. 12: 4D3-humanized-biotin antibodies compete with ch4D3 and hum4D3 antibodies at 0.02-50 ug/ml, respectively. The two competing antibodies show the same degree of competitive activity and bind to the same epitope.

[7] = molecular target: T1, TROP2 antigen (extracellular region of …); assay: ELISA, TROP2-coated plate, chimeric antibody, anti-human Fc HRP
Procedure: (§1) Dilute the chimeric antibody to a concentration of 50 ug/ml, add it to wells A1˜H1 on the TROP2-coated ELISA plate, and then perform a 3-fold horizontal dilution from A1 to A12; incubate at 37° C. for 1 hr, then rinse and add Mouse anti-human Fc HRP-labeled antibody was incubated at 37° C. for color development.

[8] = molecular target: T1, TROP2 antigen (extracellular region of …); assay: ELISA on a TROP2-coated plate, anti-human Fc HRP detection
Procedure: as §1

[9] = molecular target: T2, TROP2 on BXPC-3 and MCF-7 cells; assay: flow cytometry on BXPC-3 cells, 1 hr at 4 C, FITC-labelled secondary antibody; remark: listed apart in the source

Binder | EC50 [1] | EC50 (read off the curve) [2] | Kd [3] | koff [3] | kon [3] | EC50 (read off the curve) [4] | EC50 [5] | EC50 [6] | EC50 [7] | EC50 (read off the curve) [8] | EC50 (read off the curve) [9]
B1 | 0.856 µg/mL | ~0.04 µg/mL | 0.0994 nM | 1.85e-05 s⁻¹ | 186000 M⁻¹ s⁻¹ | ~0.05 µg/mL | 0.0601 µg/mL | – | – | – | –
B2 | – | – | 6.89 nM | 0.00162 s⁻¹ | 235000 M⁻¹ s⁻¹ | – | 0.056 µg/mL | 0.336 µg/mL | 0.047 µg/mL | ~0.05 µg/mL | –
B3 | 0.732 µg/mL | – | 0.0611 nM | 1.45e-05 s⁻¹ | 243000 M⁻¹ s⁻¹ | – | 0.061 µg/mL | – | 0.071 µg/mL | ~0.07 µg/mL | –
B4 | – | – | 30.7 nM | 0.00428 s⁻¹ | 139000 M⁻¹ s⁻¹ | – | 0.0502 µg/mL | 0.326 µg/mL | – | – | ~0.04 µg/mL

Source: patent publication US20230242665A1 (SYSTIMMUNE, published 2023)
